According to patent US20130108641A1:

Columns and labels:
[1] = biological target: human GITR expressed on cells (human) (UniProt Q9Y5U5); test: cell-based or functional assay
[2] = biological target: human GITR expressed on cells (human) (UniProt Q9Y5U5); test: FACS, Alexa488-labeled antibody on PHA-stimulated human PBMCs
[3] = biological target: human GITR-Fc fusion protein (human) (UniProt Q9Y5U5); test: competition ELISA, GITRL coated, GITR-Fc 0.25 µg/mL pre-incubated with antibody
human GITR-Fc fusion protein (human), sequence (Q9Y5U5 26-162): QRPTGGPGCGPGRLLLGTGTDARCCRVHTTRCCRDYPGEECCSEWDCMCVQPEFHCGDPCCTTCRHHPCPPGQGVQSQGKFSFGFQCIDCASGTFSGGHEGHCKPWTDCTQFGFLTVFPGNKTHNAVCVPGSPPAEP

human GITR expressed on cells (human), sequence (Q9Y5U5 26-241): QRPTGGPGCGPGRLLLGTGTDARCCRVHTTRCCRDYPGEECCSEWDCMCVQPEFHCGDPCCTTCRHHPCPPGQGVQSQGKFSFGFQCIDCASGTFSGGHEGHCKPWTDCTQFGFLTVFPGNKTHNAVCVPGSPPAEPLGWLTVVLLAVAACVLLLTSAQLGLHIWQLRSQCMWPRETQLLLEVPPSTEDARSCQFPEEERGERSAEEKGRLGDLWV

inhibition of NFkB signal transduction (luciferase reporter) at 300 ng/ml [1]: 18%
Kd [2]: 1.66 nM
IC50 [3]: 13.9 nM
Substance: MAB689 (R&D Systems), commercial anti-GITR antibody
